From the supplement of paper PMC10567573

B1: CDC25B (parent)
chain: KSPIAPCSLDKRVILIFHCEFSSE
B2: TMEM106C (parent)
chain: YVTTNVSLIPPRSEQLVNFTGKAE

Variants of: B1
Assay: protein stability index of a GFP-peptide fusion (GPS, HEK-293T) (PSI 1-6); higher = more stable
Details: c terminus: a fixed tail appended
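Further: lentivirally expressed fusions sorted by FACS into six bins by GFP to DsRed ratio, PSI derived from sequencing read proportions per bin multiplied by bin number.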

Variant	protein stability index
L9A	2.62
L9T	2.22
L9K	2.39
L9D	2.66
L9R	3.58
L9F	2.64
L9S	2.4
L9P	3.63
L9Q	2.42
L9V	2.37
L9Y	3.94
L9G	2.92
L9M	2.53
L9C	2.46
L9W	2.9
L9N	2.78
L9I	4.08
C7S	2.13
C7Q	2.01
C7T	2.55
C7P	2.65
C7H	3.31
C7M	2.15

Variant	protein stability index
C7V	3.75
C7K	2.56
C7I	3.17
C7A	2.03
C7N	2.54
C7R	3.39
C7L	3.92
C7G	2.4
D10A	2.95
D10M	2.48
D10F	2.42
D10H	2.05
D10C	2.23
D10G	2.74
D10Q	1.71
D10P	3.83
D10I	2.12
S2A	2.37
S2M	1.13
S2F	3.02
S2D	3.82
S2Y	3.15
S2T	3.22

Variant	protein stability index
S2I	1.68
S2W	4.11
S2E	3.4
A5L	2.58
A5M	1.72
A5E	2.55
A5I	2.65
A5S	2.48
A5H	2.3
A5W	2.46
A5T	2.85
A5Q	1.42
A5F	2.93
A5Y	3
A5N	2.85
A5D	2.57
P3Q	3.1
P3N	2.73
P3L	3.29
P3A	2.25
P3G	1.9
P3H	2.63
P3M	3.46

Variant	protein stability index
P3I	2.38
P3W	2.17
P3T	2.17
I4S	2.89
I4D	1.16
I4H	1.94
I4N	2.64
I4P	2.2
I4G	4.68
I4F	2.53
I4K	3.59
I4W	2.72
I4M	4.09
I4Y	3.53
S8V	2.5
S8H	3.03
S8F	2.12
S8W	1.81
S8E	1.45
S8M	2.28
S8I	2.17
S8D	2.31
S8L	1

Variant	protein stability index
S8T	4.2
S8K	2.88
S8A	3.52
S8G	3.16
S8C	3
K1F	2.7
K1L	1.86
K1N	1.96
K1P	3.88
K1S	3.48
K1I	1.11
K1G	3.01
P6Q	4.6
P6R	1.89
P6W	3.61
P6V	1.39
P6F	3.05
P6Y	3.74
P6H	2.23
P6C	2.97
P6G	2.54

Variants of: B2
Assay: as above
Details: c terminus: a fixed tail appended

Variant	protein stability index
S13N	2.32
S13K	1.55
T3Q	2.64
T4N	2.1
T4I	1.75
T4L	2.45
T4E	1.94
T4F	1.43
T4R	2.23
V2K	3.51
V2F	2.98
V2C	2.3
V2L	2.83
L8R	1.6
L8M	2.5
L8G	2.39
G21Y	3.28
G21E	2.49
G21I	2.1
F19W	2.33
F19V	2.28
Y1A	3.53
Y1K	3.61
E24F	2.81
E24P	3.06
V17F	2.88
T20M	3.02

Variant	protein stability index
N5G	1.22
N5S	1.63
N5E	2.05
A23I	2.24
N18E	1.3
N18H	2.38
P10Q	2.26
P10D	1.46
P10V	3.38
P10T	2.42
I9S	1.71
I9H	2.46
I9A	2.94
I9L	1.7
Q15S	1.96
Q15C	2.24
Q15R	1.74
Q15A	1.5
Q15F	1.5
L16V	1.34
L16D	2.05
L16F	1.88
S7V	1.79
V6Y	2.76
V6A	1.86
V6S	1.91
V6N	2.26
